How the values were obtained:
caspase-8 = biological target: T1, caspase-8 (Homo sapiens, UniProt Q14790); assay: Caspase-8 enzymatic assay (DEVD-AMC) on immunoprecipitates of ARC co-transfected cells; assay type: biochemical; details: immunoprecipitated caspase-8 from 293T cells, fluorogenic substrate DEVD-AMC
T1 construct: expressed in transfected cells; host or cells: human 293T cells
Procedure: [293T cell were co-transfected with pcDNA3-caspase-8-AU1 or pcDNA3-caspase-8-mut and pcDNA3-ARC-Flag or pcDNA3]. Caspase-8 in cell extracts was immunoprecipitated with anti-AU1 antibody and immunoprecipitates were incubated with the fluorogenic substrate DEVD-AMC. ◯:pcDNA3 alone; ●:pcDNA3-ARC-HA alone; □:pcDNA3-caspase-8-AU1 alone; ▪:pcDNA3-caspase-8-AU1 and pcDNA3-ARC-HA; ^Δ:pcDNA3-caspase-8-mt-AU1 alone.
β-galactosidase apoptosis assay and Caspase-8 enzymatic assay: 5×10^5 293T cells were transfected with 0.3 μg of pcDNA3-β-gal plus each expression plasmid in triplicate. Cells were fixed 16 hrs after transfection, stained for β-galactosidase and assayed for morphological features of apoptosis [M. Muira et al., Cell 75:653-660 (1993)]. Statistical significance was determined by one-way ANOVA followed by Student-Neuman-Keuls post-doc comparisons. For caspase-8 enzymatic assay, 1.5×10^6 human 293T cells were co-transfected with pcDNA3, pcDNA3-ARC-Flag, pcDNA3-caspase-8 and pcDNA3-caspase-8-mt by a calcium phosphate method. Total amount of transfected plasmid DNA was always 2.5 μg. 293T cells were harvested 18hr after transfection and lysed with 0.2% NP-40 isotonic lysis buffer. Tagged proteins were immunoprecipitated and caspase activity was measured as described [N. Inohara et al., Proc. Natl. Acad. Sci. USA 94:10717-10722 (1997)].

caspase-3 = biological target: T2, caspase-3 (Homo sapiens, UniProt P42574); assay: Co-immunoprecipitation of ARC with caspase-3; assay type: binding; details: 293T lysates
T2 construct: expressed in transfected cells; host or cells: human 293T cells
T2 sequence (P42574 29-277): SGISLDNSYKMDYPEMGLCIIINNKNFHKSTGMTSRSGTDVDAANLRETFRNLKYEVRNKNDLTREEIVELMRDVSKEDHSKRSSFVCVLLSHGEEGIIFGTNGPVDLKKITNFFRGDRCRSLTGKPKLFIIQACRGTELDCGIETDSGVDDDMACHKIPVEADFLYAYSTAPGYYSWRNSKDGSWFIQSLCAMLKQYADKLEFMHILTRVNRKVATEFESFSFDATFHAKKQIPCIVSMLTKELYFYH
Procedure: (§1) Briefly, 2 μg of pcDNA3 or pcDNA3-ARC-Flag or -HA was co-transfected with 3 μg of pcDNA3 or caspase expression plasmids. Total amount of transfected plasmid DNA was always 5 μg. 293T cells were harvested after 22 hr and lysed with 0.2% NP-40 isotonic lysis buffer [Z. N. Oltvai et al., Cell 74:609-619 (1993)]. For immunoprecipitation, […] of soluble protein was incubated with 10 μg/ml of polyclonal anti-Flag, monoclonal anti-AU1 or polyclonal anti-HA antibody for 2 hr at 4° C. and tagged proteins were immunoprecipitated with Protein A-Sepharose 4B (Zymed Laboratories Inc., San Francisco, Calif.). Immunoprecipitates were subjected to 12% SDS-polyacrylamide electrophoresis and immunoblotted with anti-Flag, anti-AU1 or anti-HA antibodies.

[1] = test system: FADD, RAIDD, Bcl-XL, and c-IAP-2; assay: Association of ARC with other apoptosis regulatory molecules; assay type: binding; details: data not shown
Procedure: as §1

[2] = biological target: T3, caspase-1, epitope-tagged (human, UniProt P29466 1-404); assay: co-immunoprecipitation from co-transfected 293T cells, immunoblot
T3 construct: also called pcDNA3-caspase-1-Flag
T3 sequence: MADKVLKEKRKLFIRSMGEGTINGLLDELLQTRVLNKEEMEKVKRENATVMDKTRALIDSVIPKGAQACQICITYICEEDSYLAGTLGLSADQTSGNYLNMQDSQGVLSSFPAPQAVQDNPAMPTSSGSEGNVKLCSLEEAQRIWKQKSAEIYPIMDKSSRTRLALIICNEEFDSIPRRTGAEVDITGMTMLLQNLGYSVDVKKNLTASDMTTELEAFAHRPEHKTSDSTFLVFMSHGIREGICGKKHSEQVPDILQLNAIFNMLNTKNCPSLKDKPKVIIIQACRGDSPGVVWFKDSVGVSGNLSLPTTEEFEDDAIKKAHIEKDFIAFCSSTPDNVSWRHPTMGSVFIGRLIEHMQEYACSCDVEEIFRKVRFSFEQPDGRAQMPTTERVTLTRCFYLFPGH

[3] = biological target: T4, caspase-3, epitope-tagged (UniProt P42574 1-277); assay: as above
T4 construct: also called pcDNA3-caspase-3-Flag; not shown: position and
T4 sequence (looked up): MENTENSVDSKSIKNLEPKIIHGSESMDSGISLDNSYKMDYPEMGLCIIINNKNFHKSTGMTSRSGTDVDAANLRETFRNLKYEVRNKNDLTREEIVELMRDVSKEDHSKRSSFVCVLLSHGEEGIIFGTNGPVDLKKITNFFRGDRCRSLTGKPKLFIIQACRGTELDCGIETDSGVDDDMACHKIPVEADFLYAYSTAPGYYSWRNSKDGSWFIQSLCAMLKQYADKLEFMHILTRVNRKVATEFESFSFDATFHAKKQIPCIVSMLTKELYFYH

[4] = biological target: T5, caspase-9, Flag-tagged (pcDNA3-caspase-9-Flag) (UniProt P55211 1-416); assay: as above
T5 construct: not shown: Flag tag
T5 sequence (looked up): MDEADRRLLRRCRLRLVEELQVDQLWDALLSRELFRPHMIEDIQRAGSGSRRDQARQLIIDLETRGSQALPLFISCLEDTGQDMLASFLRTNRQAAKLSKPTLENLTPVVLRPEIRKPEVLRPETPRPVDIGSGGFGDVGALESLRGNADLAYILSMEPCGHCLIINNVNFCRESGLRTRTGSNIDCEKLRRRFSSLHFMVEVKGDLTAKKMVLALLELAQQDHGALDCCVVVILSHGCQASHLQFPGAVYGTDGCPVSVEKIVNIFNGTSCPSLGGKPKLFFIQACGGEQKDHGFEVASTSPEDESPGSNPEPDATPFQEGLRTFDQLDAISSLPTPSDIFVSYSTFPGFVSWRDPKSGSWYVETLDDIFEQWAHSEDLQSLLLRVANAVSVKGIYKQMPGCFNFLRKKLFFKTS

Bcl-XL = Bcl-XL (UniProt Q07817 1-233); assay: co-immunoprecipitation from co-transfected 293T cells (data not shown)
c-IAP-2 = c-IAP-2 (UniProt Q13489 1-604); assay: as above
Sequence of c-IAP-2 (Q13489 whole entry): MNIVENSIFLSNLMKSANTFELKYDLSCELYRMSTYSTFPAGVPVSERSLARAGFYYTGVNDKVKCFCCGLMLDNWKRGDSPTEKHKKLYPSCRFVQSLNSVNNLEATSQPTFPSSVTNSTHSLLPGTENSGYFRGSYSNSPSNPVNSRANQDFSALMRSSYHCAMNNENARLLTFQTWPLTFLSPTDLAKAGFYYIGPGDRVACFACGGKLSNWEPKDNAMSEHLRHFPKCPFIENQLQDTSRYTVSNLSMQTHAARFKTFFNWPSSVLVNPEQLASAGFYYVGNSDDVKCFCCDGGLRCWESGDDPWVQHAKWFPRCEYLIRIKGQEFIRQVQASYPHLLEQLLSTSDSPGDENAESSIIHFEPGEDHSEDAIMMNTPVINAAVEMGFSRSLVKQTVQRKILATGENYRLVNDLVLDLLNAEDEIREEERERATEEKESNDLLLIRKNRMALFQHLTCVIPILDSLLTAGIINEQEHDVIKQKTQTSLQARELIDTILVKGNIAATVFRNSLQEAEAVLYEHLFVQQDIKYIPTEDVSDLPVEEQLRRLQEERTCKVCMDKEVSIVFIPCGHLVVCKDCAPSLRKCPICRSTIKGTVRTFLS

T1 sequence (Q14790 1-496 isoform Q14790-4): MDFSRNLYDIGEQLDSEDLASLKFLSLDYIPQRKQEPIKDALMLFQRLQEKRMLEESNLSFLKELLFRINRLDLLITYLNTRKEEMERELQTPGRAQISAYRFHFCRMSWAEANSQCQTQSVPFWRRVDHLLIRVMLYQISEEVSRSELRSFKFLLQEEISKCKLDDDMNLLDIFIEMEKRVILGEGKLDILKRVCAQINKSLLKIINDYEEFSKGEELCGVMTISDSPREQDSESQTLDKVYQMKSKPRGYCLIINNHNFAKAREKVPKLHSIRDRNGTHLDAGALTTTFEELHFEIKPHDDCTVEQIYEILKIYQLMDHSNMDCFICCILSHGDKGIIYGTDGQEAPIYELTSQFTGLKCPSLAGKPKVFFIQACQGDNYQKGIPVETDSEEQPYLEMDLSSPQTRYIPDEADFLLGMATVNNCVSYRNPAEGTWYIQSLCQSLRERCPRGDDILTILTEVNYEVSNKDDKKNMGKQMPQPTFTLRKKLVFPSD
Sequence of Bcl-XL (Q07817 whole entry): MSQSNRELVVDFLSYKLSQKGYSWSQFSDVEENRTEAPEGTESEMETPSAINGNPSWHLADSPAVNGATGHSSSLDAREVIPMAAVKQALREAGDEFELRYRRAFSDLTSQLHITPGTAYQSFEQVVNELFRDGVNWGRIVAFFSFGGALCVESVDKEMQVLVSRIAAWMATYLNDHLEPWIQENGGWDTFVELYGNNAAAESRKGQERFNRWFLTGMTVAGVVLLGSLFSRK

enzymatic activity of caspase-8 (caspase-8): inhibited
co-immunoprecipitation with caspase-3 (caspase-3): not
binding result [2]: no binding
binding result [3]: no binding
binding result [4]: no binding
binding result (Bcl-XL): no binding
binding result (c-IAP-2): no binding
B1: human ARC (Apoptosis Repressor with CARD domain), C-terminally Flag- or HA-tagged (other)
chain: MGNAQERPSETIDRERKRLVETLQADSGLLLDALLARGVLTGPEYEALDALPDAERRVRRLLLLVQGKGEAACQELLRCAQRTAGAPDPAWDWQHVGPGYRDRSYDPPCPGHWTPEAPGSGTTCPGLPRASDPDEAGGPEGSEAVQSGTPEEPEPELEAEASKEAEPEPEPEPELEPEAEAEPEPELEPEPDPEPEPDFEERDESEDS
notes: Entire open reading frame expressed in 293T cells; The two tagged constructs are merged here; also called ARC-Flag; ARC-HA; not shown: C-terminal FLAG or HA tag
association with FADD, RAIDD, Bcl-XL, and c-IAP-2 [1]: did not associate
